According to paper PMC4762201 (Nature, 2016):

T1: Prp6 (S. cerevisiae, UniProt P19735 1-899)
T1 sequence: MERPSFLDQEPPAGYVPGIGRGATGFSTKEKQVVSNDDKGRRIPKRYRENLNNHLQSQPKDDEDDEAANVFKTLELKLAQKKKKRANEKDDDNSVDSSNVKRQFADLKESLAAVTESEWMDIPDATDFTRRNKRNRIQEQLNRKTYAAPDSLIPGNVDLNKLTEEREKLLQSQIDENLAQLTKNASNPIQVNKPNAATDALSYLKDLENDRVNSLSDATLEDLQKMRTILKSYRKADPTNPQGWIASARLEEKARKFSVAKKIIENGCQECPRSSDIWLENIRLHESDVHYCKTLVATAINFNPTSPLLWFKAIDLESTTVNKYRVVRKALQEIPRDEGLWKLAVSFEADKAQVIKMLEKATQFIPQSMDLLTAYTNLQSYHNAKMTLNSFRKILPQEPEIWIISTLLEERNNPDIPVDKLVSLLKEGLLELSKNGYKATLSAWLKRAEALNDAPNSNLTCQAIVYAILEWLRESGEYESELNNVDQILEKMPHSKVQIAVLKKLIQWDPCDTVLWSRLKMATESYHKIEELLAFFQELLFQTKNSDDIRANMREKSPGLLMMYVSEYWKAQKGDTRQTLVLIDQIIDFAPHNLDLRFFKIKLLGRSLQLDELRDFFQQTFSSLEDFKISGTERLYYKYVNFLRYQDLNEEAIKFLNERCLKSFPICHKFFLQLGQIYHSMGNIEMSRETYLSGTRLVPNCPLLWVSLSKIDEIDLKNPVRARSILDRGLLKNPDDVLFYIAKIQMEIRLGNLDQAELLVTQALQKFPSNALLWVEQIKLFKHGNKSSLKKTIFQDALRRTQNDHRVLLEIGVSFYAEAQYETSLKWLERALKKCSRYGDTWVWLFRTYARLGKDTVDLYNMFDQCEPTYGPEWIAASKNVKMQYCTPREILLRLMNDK

B1: Prp3 (natural protein)
chain: MPPRNTYEKGNPKRQNSPYYKPSFLRREETTNDEEKFQGHGLKTELHSALKSSNLNLIRRTYQTGENPYLSDPHDRGSSSRFNRRYERGLKFYQKGEISKRIAQERTLQKQQEEEELKRKLKQEEDEKDKRKLIESGDLPNLELHEDKFLLDLSKFKIYYDNNHGYEWWDTAYLDEKGELMEKYDMNGTSPAEEKLAEDIDEVDDDDDDEHPSIRYVAHPLPEKINEAKVSIKAYLTQHERKRLRRNRRKMAREAREIKIKLGLLPKPEPKVKLSNMMSVFENDQNITDPTAWEKVVKDQVDLRKRKHLEENERRHEDAIKRRKEAVNMNVEKPTVYHCKVFQFKNLQNPKIRFKLKMNSKELSLKGLCLRIRDDGPGIIIVVGNEKSCKFYENLVMKRIKWNEDFELHTNTGDIKMDMHNNSISKTWEGYLQDCKFKGWFMKVCNDQDSLLRTLGQFDSEHFYSPVQT
B2: Snu66 (natural protein, S. cerevisiae, UniProt Q12420 1-587, looked up)
chain: MNKTENLSIEETNEIREKLGMKPIPVFQEKNTDHKESLSIEETNELRASLGLKLIPPQQNFNSSPPNVHNTSKIDELREKITKFQKKANAPLRMAHLLEETNVNDDSSWLENMDAIPSSHESKRSSTLPRKGATKEDENIDLHNVQVSYNIEALSPKKDTILTLKESSIFDDTDSTEVLENVKAAEENADREKLRLRQMNKDRRQKKKILNVSSLDIEEEEEGEKHSITTTHLIIGAEQGVMKAPNTISAKPPTGKVKVNFDSANNMSDEDGGDFKPLKIKKRKIKDPRSTKARKSKITDKMEIVKLVDEDESLSWMEEEQPVTIINPRTSSNNELKGPEDLAREIEKARDEEKRRTESILKMREISNSIVVDEKVTFLNTLDTSLSERSATENKVKVHGEGEKNIGDVTNGHTKEGSGNNTLTEAVNNEPNYEGDAENAPNFFSGLASTLGYLRKKSVFTTGDVDLKPGKDVNNSESLRRDVRNKEHTGTGTYTKDKLHGLEQFTSSDSSNANTHSKRQDHYDPDIKLVYRDEKGNRLTTKEAYKKLSQKFHGTKSNKKKRAKMKSRIEARKNTPENGSLFEFDDN
B3: Snu13 (natural protein, S. cerevisiae, UniProt P39990 1-126, looked up)
chain: MSAPNPKAFPLADAALTQQILDVVQQAANLRQLKKGANEATKTLNRGISEFIIMAADCEPIEILLHLPLLCEDKNVPYVFVPSRVALGRACGVSRPVIAASITTNDASAIKTQIYAVKDKIETLLI
B4: Prp31 (natural protein)
chain: MSSEEDYFDELEYDLADEVNEEKEDIQTKKLTTVNCQTEKFNPFEILPESIELFRTLALISPDRLSLSETAQILPKIVDLKRILQQQEIDFIKLLPFFNEIIPLIKSNIKLMHNFLISLYSRRFPELSSLIPSPLQYSKVISILENENYSKNESDELFFHLENKAKLTREQILVLTMSMKTSFKNKEPLDIKTRTQILEANSILENLWKLQEDIGQYIASKISIIAPNVCFLVGPEIAAQLIAHAGGVLEFSRIPSCNIASIGKNKHLSHELHTLESGVRQEGYLFASDMIQKFPVSVHKQMLRMLCAKVSLAARVDAGQKNGDRNTVLAHKWKAELSKKARKLSEAPSISETKALPIPEDQPKKKRAGRKFRKYKEKFRLSHVRQLQNRMEFGKQEQTVLDSYGEEVGLGMSNTSLQQAVGATSGSRRSAGNQAKLTKVMKHRISEANQQADEFLISLGHNTEQPNLSPEMVQMHKKQHTNPEEETNWFSGHG
B5: Dib1 (natural protein, S. cerevisiae, UniProt Q06819 1-143, looked up)
chain: MASVLLPQLRTGWHVDQAIVTETKRLVVIRFGRKNDRQCMIMDELLSSIAERVRNFAVIYLCDIDEVSDFDEMYELTDPMTVMFFYHNKHMMCDFGTGNNNKLNFIVDDKQEMIDILETIFRGARKNKGLVVSPYDYNHKRVS
B6: Prp4 (natural protein)
chain: MSKYIALENLPVDLQHKGATQNESTADILKQLPHERLQAVLEKIPEEDLEVRRLLSILKKPEVVENEDVQQRRIRLAEILMVDEIDLENINNMENINGEEVDEEDDEDFFTPATSELIFARRFLINYSLERSRKRLQKEMERHQKFNTRQELLSRRTELQRMANLELAGSQLVSTKPISAVSLSTDDMVVATGSWAGDLQVLNSQTLQPLTQKLDSHVGKIGAIDWHPDSNNQMISCAEDGLIKNFQYSNEEGGLRLLGDLVGHERRISDVKYHPSGKFIGSASHDMTWRLWDASTHQELLLQEGHDKGVFSLSFQCDGSLVCSGGMDSLSMLWDIRSGSKVMTLAGHSKPIYTVAWSPNGYQVATGGGDGIINVWDIRKRDEGQLNQILAHRNIVTQVRFSKEDGGKKLVSCGYDNLINVYSSDTWLKMGSLAGHTDKIISLDISNNSHFLVSGGWDRSIKLWN

Key:
Assay in all cases: cryo-EM structure
[1] = biological target: Brr2 (S. cerevisiae, UniProt P32639 1-2163)
[2] = biological target: B4
[3] = biological target: B1
[4] = biological target: B6
[5] = biological target: T1, Prp6

Chain of Brr2 (P32639 whole entry): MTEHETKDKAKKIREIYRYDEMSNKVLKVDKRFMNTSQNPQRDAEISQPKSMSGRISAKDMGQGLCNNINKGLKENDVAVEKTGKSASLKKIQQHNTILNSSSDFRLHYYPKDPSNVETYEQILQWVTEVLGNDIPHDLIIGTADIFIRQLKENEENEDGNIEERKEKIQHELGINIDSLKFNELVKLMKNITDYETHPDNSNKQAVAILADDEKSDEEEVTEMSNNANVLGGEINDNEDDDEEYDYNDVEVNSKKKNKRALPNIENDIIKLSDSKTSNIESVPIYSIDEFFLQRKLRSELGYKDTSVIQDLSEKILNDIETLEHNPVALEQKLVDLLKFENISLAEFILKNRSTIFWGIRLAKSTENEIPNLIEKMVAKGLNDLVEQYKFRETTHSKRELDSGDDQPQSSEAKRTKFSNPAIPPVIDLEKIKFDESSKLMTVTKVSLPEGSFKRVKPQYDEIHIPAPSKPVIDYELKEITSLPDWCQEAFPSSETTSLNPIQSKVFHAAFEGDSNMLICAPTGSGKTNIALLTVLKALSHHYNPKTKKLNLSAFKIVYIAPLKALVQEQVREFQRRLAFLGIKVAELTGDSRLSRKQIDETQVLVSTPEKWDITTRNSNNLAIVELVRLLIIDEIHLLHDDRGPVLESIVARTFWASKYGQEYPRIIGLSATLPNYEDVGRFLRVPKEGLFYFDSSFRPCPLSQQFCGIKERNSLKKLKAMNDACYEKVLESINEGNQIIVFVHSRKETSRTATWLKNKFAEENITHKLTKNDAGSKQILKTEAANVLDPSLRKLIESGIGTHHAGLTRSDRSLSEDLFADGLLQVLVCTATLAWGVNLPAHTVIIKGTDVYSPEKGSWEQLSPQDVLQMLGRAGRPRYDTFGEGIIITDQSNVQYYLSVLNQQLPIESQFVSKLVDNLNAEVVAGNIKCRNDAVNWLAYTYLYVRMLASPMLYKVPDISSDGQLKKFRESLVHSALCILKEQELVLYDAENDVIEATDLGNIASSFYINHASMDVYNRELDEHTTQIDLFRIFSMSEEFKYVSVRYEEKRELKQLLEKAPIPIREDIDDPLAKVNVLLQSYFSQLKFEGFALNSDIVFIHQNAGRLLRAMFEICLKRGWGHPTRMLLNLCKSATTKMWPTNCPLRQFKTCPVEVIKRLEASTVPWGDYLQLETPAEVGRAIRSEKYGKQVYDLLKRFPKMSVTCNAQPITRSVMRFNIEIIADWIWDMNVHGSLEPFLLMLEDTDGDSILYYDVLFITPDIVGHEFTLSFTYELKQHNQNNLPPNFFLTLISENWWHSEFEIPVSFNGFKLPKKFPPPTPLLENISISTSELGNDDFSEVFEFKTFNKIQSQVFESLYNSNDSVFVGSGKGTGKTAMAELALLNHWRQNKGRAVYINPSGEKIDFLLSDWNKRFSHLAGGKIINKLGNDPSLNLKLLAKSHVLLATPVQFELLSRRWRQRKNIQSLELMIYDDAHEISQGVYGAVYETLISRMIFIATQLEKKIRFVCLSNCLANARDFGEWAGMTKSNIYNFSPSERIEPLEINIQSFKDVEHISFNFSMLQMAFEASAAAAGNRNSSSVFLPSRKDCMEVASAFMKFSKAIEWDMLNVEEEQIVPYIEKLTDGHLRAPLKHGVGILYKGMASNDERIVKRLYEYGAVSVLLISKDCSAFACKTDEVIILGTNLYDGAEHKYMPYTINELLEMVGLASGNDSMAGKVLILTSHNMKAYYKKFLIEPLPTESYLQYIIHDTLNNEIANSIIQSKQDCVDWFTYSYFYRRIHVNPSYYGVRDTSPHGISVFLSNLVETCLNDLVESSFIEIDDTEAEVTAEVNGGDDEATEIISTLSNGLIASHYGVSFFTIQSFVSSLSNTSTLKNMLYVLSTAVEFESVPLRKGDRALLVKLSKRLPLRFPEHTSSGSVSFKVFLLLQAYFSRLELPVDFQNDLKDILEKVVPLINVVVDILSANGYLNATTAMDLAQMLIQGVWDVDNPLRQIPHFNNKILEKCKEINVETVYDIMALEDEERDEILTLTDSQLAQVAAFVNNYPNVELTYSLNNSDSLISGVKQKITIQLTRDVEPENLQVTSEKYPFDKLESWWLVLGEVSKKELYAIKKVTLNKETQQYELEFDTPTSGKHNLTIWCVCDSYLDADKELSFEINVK

| binding result [1] | binding result [2] | binding result [3] | Binder | further results |
| --- | --- | --- | --- | --- |
| binds |  |  | B1 |  |
| binds |  |  | B2 |  |
|  | binds | binds | B3 | binding result [4]: binds |
|  |  |  | B4 | binding result [5]: binds |
|  | binds |  | B5 |  |
|  |  | binds | B6 |  |
